Among the data in paper PMC8654305 are stoichiometry N values, retold here.

The assay addresses recombinant C-terminal StrepII-tagged ScSbtB (SbtB from Synechocystis sp. PCC 6803) (Synechocystis sp. PCC 6803), P73954. Nature of the assay: crystal structure. The conditions noted are these: remark: other sources report otherwise.

B1: recombinant C-terminal StrepII-tagged ScSbtB (SbtB from Synechocystis sp. PCC 6803), P73954 1-110 (natural protein)
chain: MAKPANKLVIVTEKILLKKIAKIIDESGAKGYTVMNTGGKGSRNVRSSGQPNTSDIEANIKFEILTETREMAEEIADRVAVKYFNDYAGIIYICSAEVLYGHTFCGPEGC
For the molecule B1, the stoichiometry N was found to be 3.

The term stoichiometry N denotes a count of units in the complex or per binding partner.
